B1: Rbt13B4 (antibody, V domains shown)
VH: QSVEESGGRLVTPGTPLTLTCTVSGFSLSSYAMGWVRQAPGKGLEWIGIINSYGNTYYANWAKGRFTISRTSTTVDLRMPSLTTEDTATYFCARDPGVSSNLWGPGTLVTVSS
VL: DVVMTQTPASVSEPVGGTVTIKCQASQNIYSGLAWYQQKPGQPPKLLIYGASKLASGVSSRFKGSGSGTEFTLTISDLECADAATYYCQATYYSSNSVAFGGGTEVVVK
notes: Recombinant rabbit monoclonal antibody, Expi293, protein A purified; also called Rb13B4
B2: Rbt11G11 (antibody, V domains shown)
VH: QELVESGGGLVQAGESLKLSCKASGIDFSSYGISWVRQAPGKGLEWIAYIYPGFGITNYAHSVKGRFTISSDNAQNTVFLQMPSLTASDTATYFCARDLDYTGGVVGYAYVTYYFTLWGPGTLVTVSS
VL: DPVLTQTPSSVEAAVGGTVTIKCQASESISSRLAWYQQKPGQPPKLLIYSASTLASGVSSRFKGSGSGTEFTLTISDLECADAATYYCQTYYGGSTTGWYVFGGGTEVVVK
notes: Recombinant rabbit monoclonal antibody, Expi293, protein A purified
B3: Rbt12H4 (antibody, V domains shown)
VH: QSVEESGGRLVTPGTPLTVTCTVSGFSLSVYGMGWVRQAPGKGLEYIGFINNVGNTYYASWAKGRFTISKTSTTVDLKITSPTTEDTATYFCAKGGGGDWGYFNIWGPGTLVTVSL
VL: DVVMTQTPASVEAAVGGTVTIKCQASQSIGNALAWYQQKPGQRPKLLIYAASNLASGVPSRFAGSGSGTQFTLTISDLECADAATYYCQTYYAINRYGGAFGGGTEVVVK
notes: as for B2
B4: Rbt18G7 (antibody, V domains shown)
VH: QSLEESGGRLVTPGTPLTLTCTVSGIDLSSYALGWVRQAPGKGLEYIGIISSTGTTYYATWAKGRFTISKTSSTTVDLKITGPTTEDTATYFCARGAYAGYVAFGPYYFHIWGPGTLVTISL
VL: DIVMTQTPASVEAAVGGTVTIKCQASQSISNFLAWYQQKPGQPPKVLIYAASHLASGVPSRFKGSGSGTQFTLTISDLECADAATYYCQSYFYSSTSIYNAFGGGTEVVVR
notes: as for B2
B5: Rbt14C9 (antibody, V domains shown)
VH: QSVEESGGRLVTPGTPLTLTCTVSGIDLSANTMNWVRQAPGKGLEWIGIFTATGSTYYATWVNGRFTISKTSTTVDLKITSPTTEDTATYFCARSGSGSSSGAFNIWGPGTLVTVSL
VL: DPVLTQTPASVSEPVGGTVTIKCQASQSISSSLAWYQQKPGQPPKLLIYAASILASEISSRFKGSRSGTEFTLTISDLECADAATYYCQCTSYGSLFLGPFGGGTEVVVK
notes: as for B2

Columns and labels:
[1] = target: T1, cynomolgus monkey MerTK (cynomolgus monkey, UniProt A0A2K5V1H9 32-505); experiment: SPR BIAcore T200, Ab captured, 37C
T1 construct: Soluble analyte in SPR; also called Cyno MerTK
T1 sequence: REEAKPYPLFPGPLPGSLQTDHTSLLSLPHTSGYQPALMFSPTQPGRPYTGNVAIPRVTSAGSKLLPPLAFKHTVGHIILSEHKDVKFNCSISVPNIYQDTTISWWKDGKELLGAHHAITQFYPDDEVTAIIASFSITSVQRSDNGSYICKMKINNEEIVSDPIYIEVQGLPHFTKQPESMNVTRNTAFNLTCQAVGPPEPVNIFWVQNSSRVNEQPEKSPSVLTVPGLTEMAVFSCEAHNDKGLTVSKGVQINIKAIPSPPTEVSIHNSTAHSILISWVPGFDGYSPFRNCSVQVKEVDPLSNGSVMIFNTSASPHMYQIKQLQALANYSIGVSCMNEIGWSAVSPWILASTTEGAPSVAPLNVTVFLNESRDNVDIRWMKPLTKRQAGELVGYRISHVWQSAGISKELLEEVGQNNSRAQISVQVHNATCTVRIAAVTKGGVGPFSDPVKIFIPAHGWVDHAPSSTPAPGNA
Description: (§1) All binding affinity determinations were obtained using Surface Plasmon Resonance (SPR) measurements from a BIAcore™-T200 instrument. Briefly, each rabbit or humanized antibody was captured to achieve approximately 100 RU (Response Units). Then, 3-fold serial dilutions of MerTK from various species (0.4 nM to 100 nM) diluted in HBS-EP buffer (0.01M HEPES pH 7.4, 0.15M NaCl, 3 mM EDTA and 0.05% v/v surfactant P20) was injected into the BIAcore™-T200 instrument at 25° C. or 37° C. with a flow rate of 30 μl/min. Association rates (kₒₙ) and dissociation rates (koff) were calculated using a simple one-to-one Langmuir binding model (BIAcore T200 evaluation software version 2.0). The equilibrium dissociation constant (KD) was calculated as the ratio koff/kₒₙ.

[2] = target: T2, human MerTK (human, UniProt Q12866 26-499); experiment: SPR BIAcore T200, Ab captured, 37C
T2 construct: also called HuMER
T2 sequence: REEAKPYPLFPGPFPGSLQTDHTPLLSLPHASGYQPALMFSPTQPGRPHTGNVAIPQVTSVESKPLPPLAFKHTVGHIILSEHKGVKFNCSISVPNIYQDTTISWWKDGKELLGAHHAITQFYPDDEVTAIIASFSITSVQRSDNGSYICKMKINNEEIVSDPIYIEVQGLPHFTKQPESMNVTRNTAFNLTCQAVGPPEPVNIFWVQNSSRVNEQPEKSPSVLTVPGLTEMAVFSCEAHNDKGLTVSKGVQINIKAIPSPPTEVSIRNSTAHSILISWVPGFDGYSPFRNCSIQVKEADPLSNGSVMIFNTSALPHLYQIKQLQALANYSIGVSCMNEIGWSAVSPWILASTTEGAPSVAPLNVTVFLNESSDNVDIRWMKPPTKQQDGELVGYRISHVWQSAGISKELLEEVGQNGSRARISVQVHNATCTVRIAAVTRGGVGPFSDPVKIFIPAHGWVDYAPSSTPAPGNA
Description: as §1

[3] = target: T3, HuMER.Ig1&2 (G76-P284) (human, UniProt Q12866 76-284); experiment: SPR BIAcore T200, Ab captured, 25C
T3 construct: also called human MerTK Ig-like 1&2 domains
T3 sequence: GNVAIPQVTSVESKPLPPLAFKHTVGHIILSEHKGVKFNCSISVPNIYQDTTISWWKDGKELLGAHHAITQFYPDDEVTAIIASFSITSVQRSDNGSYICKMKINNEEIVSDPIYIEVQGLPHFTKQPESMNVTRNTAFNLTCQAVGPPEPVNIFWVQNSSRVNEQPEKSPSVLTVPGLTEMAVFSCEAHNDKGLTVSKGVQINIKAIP
Description: (§2) Binding affinity determinations were obtained using Surface Plasmon Resonance (SRP) measurements from a BIAcore™-T200 instrument. Briefly, each rabbit antibody was captured to achieve approximately 100 RU (Response Units). Then, 3-fold serial dilutions of the various MerTK domains (0.4 nM to 100 nM) diluted in HBS-EP buffer (0.01M HEPES pH 7.4, 0.15M NaCl, 3 mM EDTA and 0.05% v/v surfactant P20) was injected into the BIAcore™-T200 instrument at 25° C. or 37° C. with a flow rate of 30 μl/min. Association rates (kₒₙ) and dissociation rates (koff) were calculated using a simple one-to-one Langmuir binding model (BIAcore T200 evaluation software version 2.0). The equilibrium dissociation constant (KD) was calculated as the ratio koff/kₒₙ.
(§3) Antibody epitope determination was assessed by BIAcore analysis for rabbit antibodies binding against both the human and mouse MerTK extracellular domain (HuMER R26-A499 and MuMER E23-S496), Ig1&2 domain, Ig1-only domain, and Ig2-only domain (TABLE 18). Human MerTK and its domains are shown in light gray, while mouse MerTK and its domains are shown in dark gray.

[4] = target: T4, HuMER (R26-A499) (human, UniProt Q12866 26-499); experiment: SPR BIAcore T200, Ab captured, 25C
T4 construct: Extracellular domain with both Ig-like and both fibronectin-like domains; also called human MerTK extracellular domain
T4 sequence: T2 sequence
Description: as §2, §3

[5] = target: T5, HuMER.Ig1 (G76-G195) (human, UniProt Q12866 76-195); experiment: SPR BIAcore T200, Ab captured, 25C
T5 construct: also called human MerTK Ig-like 1 domain
T5 sequence: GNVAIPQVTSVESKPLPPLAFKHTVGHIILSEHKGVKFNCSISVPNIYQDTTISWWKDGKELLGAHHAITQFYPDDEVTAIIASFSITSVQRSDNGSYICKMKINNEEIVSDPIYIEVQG
Description: as §2, §3

[6] = target: T1, cynomolgus monkey MerTK; experiment: SPR BIAcore T200, Ab captured, 25C
Description: as §1

[7] = target: T2, human MerTK; experiment: SPR BIAcore T200, Ab captured, 25C
Description: as §1

[8] = target: T6, MuMER.Ig1&2 (A70-P279) (mouse, UniProt Q60805 70-279); experiment: SPR BIAcore T200, Ab captured, 25C
T6 construct: range 70-279; also called mouse MerTK Ig-like 1&2 domains
T6 sequence (looked up): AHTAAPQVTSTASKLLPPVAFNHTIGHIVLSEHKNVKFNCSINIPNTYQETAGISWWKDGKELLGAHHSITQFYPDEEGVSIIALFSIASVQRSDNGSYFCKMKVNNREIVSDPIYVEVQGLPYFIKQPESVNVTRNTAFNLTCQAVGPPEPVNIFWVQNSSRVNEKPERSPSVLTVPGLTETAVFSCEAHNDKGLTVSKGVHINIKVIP
Description: as §2, §3

[9] = target: T7, MuMER (E23-S496) (mouse, UniProt Q60805 23-496); experiment: SPR BIAcore T200, Ab captured, 25C
T7 construct: range 23-496; also called mouse MerTK extracellular domain
T7 sequence (looked up): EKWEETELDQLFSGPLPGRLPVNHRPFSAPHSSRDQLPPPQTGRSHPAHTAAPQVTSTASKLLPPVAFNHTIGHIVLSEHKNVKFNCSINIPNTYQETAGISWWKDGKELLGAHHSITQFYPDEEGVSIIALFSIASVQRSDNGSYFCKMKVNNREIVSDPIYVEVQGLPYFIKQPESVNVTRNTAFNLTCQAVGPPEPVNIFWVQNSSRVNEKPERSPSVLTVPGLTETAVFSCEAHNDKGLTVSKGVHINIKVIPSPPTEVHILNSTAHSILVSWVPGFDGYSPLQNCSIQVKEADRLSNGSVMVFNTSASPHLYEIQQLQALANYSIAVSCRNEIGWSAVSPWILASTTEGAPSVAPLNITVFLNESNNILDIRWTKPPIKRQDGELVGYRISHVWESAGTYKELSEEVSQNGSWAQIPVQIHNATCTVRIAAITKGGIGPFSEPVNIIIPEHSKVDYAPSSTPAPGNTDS
Description: as §2, §3

[10] = target: T8, mouse MerTK (mouse, UniProt Q60805 23-496); experiment: SPR BIAcore T200, Ab captured, 25C
T8 construct: also called MuMER
T8 sequence (looked up): T7 sequence (looked up)
Description: as §1

[11] = target: T9, MuMER.Ig1 (A70-G190) (mouse, UniProt Q60805 70-190); experiment: SPR BIAcore T200, Ab captured, 25C
T9 construct: range 70-190; also called mouse MerTK Ig-like 1 domain
T9 sequence (looked up): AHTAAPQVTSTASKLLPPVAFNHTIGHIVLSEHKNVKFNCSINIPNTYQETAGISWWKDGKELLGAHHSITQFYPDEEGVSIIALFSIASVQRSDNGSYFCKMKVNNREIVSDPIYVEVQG
Description: as §2, §3

Row | Binder | Kd [1] [nM] | Kd [2] [nM] | Kd [3] [nM] | Kd [4] [nM] | Kd [5] [nM] | Kd [6] [nM] | Kd [7] [nM] | Kd [8] [nM] | Kd [9] [nM] | Kd [10] [nM] | Kd [11] [nM]
1 | B1 | 5.9 | 4.9 | 8.8 | 2.9 | 0.3 | 1.8 | 2.9 | – | – | – | –
2 | B2 | – | – | – | 31.3 | 39.8 | 14.3 | 31.3 | 3.4 | 4.1 | 4.1 | –
3 | B3 | – | – | 92 | 18 | 16.7 | 13.9 | 18 | 11 | 8.5 | 8.5 | 2.2
4 | B4 | – | – | 21 | 2.3 | 0.5 | 4.3 | 2.3 | 1.9 | 1.7 | 1.7 | 0.2
5 | B5 | – | – | – | – | – | – | – | 0.5 | 0.6 | 0.6 | 0.1

Reference: patent US20220135701A1 (Genentech, published 2022)
